Results taken from patent US20160324962A1, “COMPOSITIONS AND METHODS FOR TREATING SARCOMA” (MEDIMMUNE, LLC, priority 2013, published 2016).

Key:
RD cells = experiment: IGF-induced proliferation (CTG); type: cell-based
Procedure: To access the effect of MEDI-573 on IGF-Induced proliferation, MEDI-573 or isotype control, was added to the cells for 30 minutes at 37° C. IGF-1 or IGF-2 was then added to the appropriate wells and incubated for 3 days. Proliferation was quantified using the CTG reagent.

IGF-1 in RD-ES tumors = target: T1, IGF-1 in RD-ES tumors (Homo sapiens, UniProt P05019); experiment: Free IGF ligands in xenograft tumors (ELISA); type: in vivo, mice; settings: different amounts of MEDI-573
T1 construct: endogenous in cells; host or cells: RD-ES (Ewing's sarcoma) xenograft tumors in athymic nude mice
T1 sequence (P05019 49-118): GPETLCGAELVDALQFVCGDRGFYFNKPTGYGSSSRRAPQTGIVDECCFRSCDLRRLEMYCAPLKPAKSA
Procedure: (§1) Free IGF ligands were measured in xenograft tumors in untreated mice and in mice treated with different amounts of MEDI-573. […] Despite KHOS cells being unresponsive to IGF-1 and/or IGF-2 stimulation, IGF-2 levels were examined in a KHOS/NP model.
(§2) Sarcoma cell lines were purchased from American type Culture Collection (Manassas, Va.). CellTiter-Glo reagents were obtained from Promega (Madison, Wis.). Whole cell lysate kits for pIGF-1R, pIR-A, and pAKT were purchased from Meso Scale Discovery (MSD; Rockville, Md.). ELISA kits for total IGF-1 and IGF-1R were purchased from R&D Systems (Minneapolis, Minn.). ELISA kits for total IGF-2 were purchased from Insight Genomics (Falls Church, Va.). An ELISA kit for detecting free IGF-1 and IGF-2 was developed in house. Human IGF-1 and IGF-2 were obtained from R&D Systems (Minneapolis, Minn.). Antibodies for detecting phospho-AKT, phospho-4EBP1, phospho-S6K, and GAPDH were from Cell Signaling Technology (Beverly, Mass.).

[1] = tested on: engineered NIH3T3 and human tumor cell lines; experiment: In vitro growth of engineered and tumor cell lines; type: cell-based
Text: (§3) MEDI 573 selectively binds to human insulin-like growth factor (hIGF)-I and hIGF-2 and […]. MEDI-573 targets the IGF-1 and IGF-2 ligands and thereby inhibits IGF-mediated signal transduction. […] Furthermore, MEDI-573 has potential to achieve this without perturbing glucose homeostasis, which has been an adverse effect observed with investigational agents that target IGF 1R. The results of in vitro studies have shown that MEDI-573 inhibited both IGF-1 and IGF-2-stimulated phosphorylation of IGF 1R and that of downstream signaling proteins including Akt and MAPK in a number of engineered mouse embryonic fibroblast NIH-3T3 cell lines transfected to express human IGF-1R and either human IGF-1/-2. Furthermore, MEDI-573 inhibited autocrine phosphorylation of these signaling molecules.

murine IGF-1 = murine IGF-1 (Mus musculus, UniProt P05017); experiment: Binding affinity
Sequence of murine IGF-1 (P05017 1-118 limits assumed): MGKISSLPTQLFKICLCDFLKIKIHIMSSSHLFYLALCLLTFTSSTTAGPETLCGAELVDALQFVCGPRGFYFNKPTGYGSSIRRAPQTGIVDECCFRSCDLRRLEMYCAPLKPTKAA

SJCRH30 cells = experiment: In vitro cell proliferation (CellTiter-Glo), no exogenous IGF; type: cell-based; settings: 3 days
Procedure: (§4) To determine the effect of treatment with MEDI-573 antibody on the growth of tumor cells, three rhabdomyosarcoma cell lines (RD, SJCRH30, and Hs729); three Ewing's sarcoma cell lines (RD-ES, TC-71, and SK-ES-1), and four osteosarcoma cell lines (SJSA-1, KHOS, MG-63, and SAOS2) were treated with MEDI-573, an anti-IGF antibody, in the absence of exogenous IGF-1 or IGF-2.
(§5) Sarcoma cell lines were cultured overnight in regular growth medium. The following day, medium containing 0.1% charcoal stripped fetal bovine serum (FBS) was added and the cells incubated overnight. The next day, cells were treated with various amounts of MEDI-573 and the cultures incubated for 3 days. Proliferation was quantified using the CellTiter-Glo (CTG) reagent (Promega, Madison, Wis.).

MG-63 cells = experiment: as above; type: cell-based; settings: 3 days
Procedure: as §4, §5

Hs729 cells = experiment: as above; type: cell-based; settings: 3 days
Procedure: as §4, §5

SAOS2 cells = experiment: as above; type: cell-based; settings: 3 days
Procedure: as §4, §5

SK-ES-1 cells = experiment: as above; type: cell-based; settings: 3 days
Procedure: as §4, §5

KHOS cells = experiment: as above; type: cell-based; settings: 3 days
Procedure: as §4, §5

RD-ES cells [2] = experiment: as above; type: cell-based; settings: 3 days
Procedure: as §4, §5

TC-71 cells = experiment: as above; type: cell-based; settings: 3 days
Procedure: as §4, §5

IGF-2 in SJSA-1 tumors = target: T2, IGF-2 in SJSA-1 tumors (Homo sapiens, UniProt P01344); experiment: Free IGF ligands in xenograft tumors (ELISA); type: in vivo, mouse xenograft; settings: even at the lowest dose of 10 mg/kg
T2 construct: endogenous in cells; host or cells: SJSA-1 (osteosarcoma) xenograft tumors in athymic nude mice
T2 sequence (P01344 25-91): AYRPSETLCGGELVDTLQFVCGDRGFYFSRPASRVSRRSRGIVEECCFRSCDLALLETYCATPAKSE
Procedure: as §1, §2

[3] = target: T3, human IGF-2 in KHOS/NP model (Homo sapiens, UniProt P01344); experiment: Free IGF ligands in xenograft tumors (ELISA); type: in vivo, mouse xenograft; settings: up to 60 mg/kg
T3 construct: endogenous in cells; host or cells: KHOS/NP (osteosarcoma) xenograft tumors in athymic nude mice
T3 sequence (P01344 25-91): as above
Procedure: as §1, §2

p4EBP1 = experiment: Immunoblot of cell lysates after MEDI-573, mTORi, combination; type: cell-based; settings: single agent, 4 hours
Procedure: (§6) To examine the effect of MEDI-573, mTORi, and combination of both on IGF signaling, RD-ES, SJSA-1, and KHOS cells were treated with these agents for 4 hours. After separation of the cell lysates by gel electrophoresis, the proteins were detected by immunoblotting.

pS6K = experiment: as above; type: cell-based; settings: RD-ES and SJSA-1 cells, 4 hours
Procedure: as §6

RD-ES cells [4] = experiment: Cytotoxicity assay, MEDI-573 and mTOR inhibitors; type: cell-based; settings: agents alone or in combination (FIG. 14)
IGF 1R phosphorylation = experiment: IGF-stimulated phosphorylation in engineered NIH-3T3 cell lines; type: cell-based; settings: NIH-3T3 cell lines expressing human IGF-1R and human IGF-1/-2
Text: as §3

free IGF-1 in tumors (IGF-1 in RD-ES tumors): dose-dependent suppression
binding affinity (murine IGF-1): low binding affinity
IC50 (SK-ES-1 cells): 3.2 µM
free IGF-2 in tumors (IGF-2 in SJSA-1 tumors): almost completely neutralized
human IGF-2 levels in tumors [3]: Dose-dependent inhibition
B1: MEDI-573: fully human monoclonal IgG2 lambda antibody that binds IGF-2 with cross reactivity to IGF-1; hybridoma 7.159.2, ATCC PTA-7424 (antibody)
heavy: QVQLVQSGAEVKKPGASVKVSCKASGYTFTSYDINWVRQATGQGLEWMGWMNPNSGNTGYAQKFQGRVTMTRNTSISTAYMELSSLRSEDTAVYYCARDPYYYYYGMDVWGQGTTVTVSSASTKGPSVFPLAPCSRSTSESTAALGCLVKDYFPEPVTVSWNSGALTSGVHTFPAVLQSSGLYSLSSVVTVPSSNFGTQTYTCNVDHKPSNTKVDKTVERKCCVECPPCPAPPVAGPSVFLFPPKPKDTLMISRTPEVTCVVVDVSHEDPEVQFNWYVDGVEVHNAKTKPREEQFNSTFRVVSVLTVVHQDWLNGKEYKCKVSNKGLPAPIEKTISKTKGQPREPQVYTLPPSREEMTKNQVSLTCLVKGFYPSDIAVEWESNGQPENNYKTTPPMLDSDGSFFLYSKLTVDKSRWQQGNVFSCSVMHEALHNHYTQKSLSLSPGK
light: QSVLTQPPSVSAAPGQKVTISCSGSSSNIENNHVSWYQQLPGTAPKLLIYDNNKRPSGIPDRFSGSKSGTSATLGITGLQTGDEADYYCETWDTSLSAGRVFGGGTKLTVLGQPKAAPSVTLFPPSSEELQANKATLVCLISDFYPGAVTVAWKADSSPVKAGVETTTPSKQSNNKYAASSYLSLTPEQWKSHRSYSCQVTHEGSTVEKTVAPTECS
IGF-1 IC50 (μM) (RD cells; RD cells stimulated with IGF-1): No Induction
IGF-2 IC50 (μM) (RD cells; RD cells stimulated with IGF-2): No Induction
effect on growth (RD cells; RD cells, with or without IGF stimulation): failed to have any significant effect
growth in vitro [1]: effectively inhibited the growth
IC50 (SJCRH30 cells): 3.2 µM
IC50 (μM) (MG-63 cells): Inactive
IC50 (μM) (Hs729 cells): Inactive
IC50 (μM) (SAOS2 cells): Inactive
IC50 (μM) (KHOS cells): Inactive
IC50 (RD-ES cells [2]): 6.9 µM
IC50 (TC-71 cells): 2.7 µM
phosphorylation of 4EBP1 (p4EBP1): did not have effect
phosphorylation of S6K (pS6K): inhibited phosphorylation of S6K
decrease in cell viability (RD-ES cells [4]): 56%
IGF-1 and IGF-2-stimulated phosphorylation of IGF 1R (IGF 1R phosphorylation): inhibited
